These results are taken from PMC4379586.

Data set [1] concerns MDM2 C-terminal RING domain (GST fusion) (human). The data set can be described thus: ITC. Conditions: ITC: 10 mM Hepes pH 7.2, 150 mM NaCl, temperature not stated; fluorescence titration (ex 280 nm, em 335 nm): buffer and temperature not stated.
Data set [2] has the same test system. The data set can be described thus: intrinsic protein fluorescence titration. Conditions: ITC: 10 mM Hepes pH 7.2, 150 mM NaCl, temperature not stated; fluorescence titration (ex 280 nm, em 335 nm): buffer and temperature not stated.

As to “XIAP IRES RNA (small, RNP core binding site)”, the Kd (commonly the constant that tells how readily two partners part at equilibrium) in data set [1] was 700 nM; in data set [2] it was 680 nM.
